Reference: FireProtDB (doi:10.1002/cbic.201402128)
Several values for one entry are separate records, joined by “and”; a condition that tells them apart may be missing. Equal entries are not always repeated.

B1: Haloalkane dehalogenase, D4Z2G1 (parent)
chain: MSLGAKPFGEKKFIEIKGRRMAYIDEGTGDPILFQHGNPTSSYLWRNIMPHCAGLGRLIACDLIGMGDSDKLDPSGPERYAYAEHRDYLDALWEALDLGDRVVLVVHDWGSALGFDWARRHRERVQGIAYMEAIAMPIEWADFPEQDRDLFQAFRSQAGEELVLQDNVFVEQVLPGLILRPLSEAEMAAYREPFLAAGEARRPTLSWPRQIPIAGTPADVVAIARDYAGWLSESPIPKLFINAEPGALTTGRMRDFCRTWPNQTEITVAGAHFIQEDSPDEIGAAIAAFVRRLRPA

Variants of: B1
Conditions: Sphingobium indicum (strain DSM 16413 / CCM 7287 / MTCC 6362 / UT26 / NBRC 101211 / UT26S); pH 7.5; Thermal; fluorescence; Na-Hepes 50 mM; reversible: no; structure 1MJ5; whole UniProt chain shown

Variant | Tm | change of melting temperature, mutant - wild type (higher = more stable)
MSLGAKPFGEKKFIEIKGRRMAYIDEGTGDPILFQHGNPTSSYLWRNIMPHCAGLGRLIACDLIGMGDSDKLDPSGPERYAYAEHRDYLDALWEALDLGDRVVLVVHDWGSALGFDWARRHRERVQGIAYMEAIAMPIEWADFPEQDRDLFQAFRSQAGEELVLQDNVFVEQVLPGLILRPLSEAEMAAYREPFLAAGEARRPTLSWPRQIPIAGTPADVVAIALDYAGWLSESPIPKLFINAEPGALTTGRMRDFCRTWPNQTEITVAGAHFIQEDSPDEIGAAIAAFVRRLRPA [R225L] | 51.5 °C | 0.5 °C
MSLGAKPFGEKKFIEIKGRRMAYIDEGTGDPILFQHGNPTSSYLWRNIMPHCAGLGRLIACDLIGMGDSDKLDPSGPERYAYAEHRDYLDALWEALDLGDRVVLVVHDWGSALGFDWARRHRERVQGIAYMEAIAMPIEWADFPEQDRDLFQAFRSQAGEELVLQDNVFVEQVLPGLILRPLSEAEMAAYREPFLAAGEARRPTLSWPRQIPIAGTPEDVVAIARDYAGWLSESPIPKLFINAEPGALTTGRMRDFCRTWPNQTEITVAGAHFIQEDSPDEIGAAIAAFVRRLRPA [A218E] | 51 °C | 0 °C
MSLGAKPFGEKKFIEIKGRRMAYIDEGTGDPILFQHGNPTSSYLWRNIMPHCAGLGRLIACDLIGMGDSDKLDPSGPERYAYAEHRDYLDALWEALDLGDRVVLVVHDWGSALGFDWARRHRERVQGIAYMEAIAMPIEWADFPEQDRDLFQAFRSQAGEELVLQDNVFVEQVLPGLILRPLSEAEMAAYREPFLAAGEARRPTLSWPRQIPIAGTPPDVVAIARDYAGWLSESPIPKLFINAEPGALTTGRMRDFCRTWPNQTEITVAGAHFIQEDSPDEIGAAIAAFVRRLRPA [A218P] | 51.5 °C | 0.5 °C
MSLGAKPFGEKKFIEIKGRRMAYIDEGTGDPILFQHGNPTSSYLWRNIMPHCAGLGRLIACDLIGMGDSDKLDPSGPERYAYAEHRDYLDALWEALDLGDRVVLVVHDWGSALGFDWARRHRERVQGIAYMEAIAMPIEWADFPEQDRDLFQAFRSQAGEELVLQDNVFVEQVLPGLILRPLSEAEMAAYREPFLAAGEARRPTLSWPRQIPIAGTPADVVAIARDYAGWLSHSPIPKLFINAEPGALTTGRMRDFCRTWPNQTEITVAGAHFIQEDSPDEIGAAIAAFVRRLRPA [E233H] | 51.5 °C | 0.5 °C
MSLGAKPFGEKKFIEIKGRRMAYIDEGTGDPILFQHGNPTSSYLWRNIMPHCAGLGRLIACDLIGMGDSDKLDPSGPERYAYAEHRDYLDALWEALDLGDRVVLVVHDWGSALGFDWARRHRERVQGIAYMEAIAMPIEWADFPEQDRDLFQAFRSQAGEELVLQDNVFVEQVLPGLILRPLSEAEMAAYREPFLAAGEARRPTLSWPRQIPIAGTPADVVAIARDYAGWLSQSPIPKLFINAEPGALTTGRMRDFCRTWPNQTEITVAGAHFIQEDSPDEIGAAIAAFVRRLRPA [E233Q] | 51.5 °C | 0.5 °C
MSLGAKPFGEKKFIEIKGRRMAYIDEGTGDPILFQHGNPTSSYLWRNIMPHCAGLGRLIACDLIGMGDSDKLDPSGPERYAYAEHRDYLDALWEALDLGDRVVLVVHDWGSALGFDWARRHRERVQGIAYMEAIAMPIEWADFPEQDRDLFQAFRSQAGEELVLQDNVFVEQVLPGLILRPLSEAEMAAYREPFLAAGEPRRPTLSWPRQIPIAGTPADVVAIARDYAGWLSESPIPKLFINAEPGALTTGRMRDFCRTWPNQTEITVAGAHFIQEDSPDEIGAAIAAFVRRLRPA [A200P] | 50.5 °C | -0.5 °C
MSLGAKPFGEKKFIEIKGRRMAYIDEGTGDPILFQHGNPTSSYLWRNIMPHCAGLGRLIACDLIGMGDSDKLDPSGPERYAYAEHRDYLDALWEALDLGDRVVLVVHDWGSALGFDWARRHRERVQGIAYMEAIAMPIEWADFPEQDRDLFQAFRSQAGEELVLQDNVFVEQVLPGLILRPLSEAEMAAYRRPFLAAGEARRPTLSWPRQIPIAGTPADVVAIARDYAGWLSESPIPKLFINAEPGALTTGRMRDFCRTWPNQTEITVAGAHFIQEDSPDEIGAAIAAFVRRLRPA [E192R] | 53.5 °C | 2.5 °C
MSLGAKPFGEKKFIEIKGRRMAYIDEGTGDPILFQHGNPTSSYLWRNIMPHCAGLGRLIACDLIGMGDSDKLDPSGPERYAYAEHRDYLDALWEALDLGDRVVLVVHDWGSALGFDWARRHRERVQGIAYMEAIAMPIEWADFPEQDRDLFQAFRSQAGEELVLQDNVFVEQVLPGLILRPLSEAEMAAYREPFLCAGECRRPTLSWPRQIPIAGTPADVVAIARDYAGWLSESPIPKLFINAEPGALTTGRMRDFCRTWPNQTEITVAGAHFIQEDSPDEIGAAIAAFVRRLRPA [A196C A200C] | 48.5 °C and 46 °C | -2.5 °C and -3 °C and -0.5 °C
MSLGAKPFGEKKFIEIKGRRMAYIDEGTGDPILFQHGNPTSSYLWRNIMPHCAGLGRLIACDLIGMGDSDKLDPSGPERYAYAEHRDYLDALWEALDLGDRVVLVVHDWGSALGFDWARRHRERVQGIAYMEAIAMPIEWADFPEQDRDLFQAFRSQAGEELVLQDNVFVEQVLPGLILRPLSEAEMAAYREPFLAAGEARRPTLSWPRQIPIAGTPADVVAIARKYAGWLSESPIPKLFINAEPGALTTGRMRDFCRTWPNQTEITVAGAHFIQEDSPDEIGAAIAAFVRRLRPA [D226K] | 50.5 °C | -0.5 °C
MSLGAKPFGEKKFIEIKGRRMAYIDEGTGDPILFQHGNPTSSYLWRNIMPHCAGLGRLIACDLIGMGDSDKLDPSGPERYAYAEHRDYLDALWEALDLGDRVVLVVHDWGSALGFDWARRHRERVQGIAYMEAIAMPIEWADFPEQDRDLFQAFRSQAGEELVLQDNVFVEQVLPGLILRPLSEAEMAAYREPFLAAGEARRPTLSWPRQIPIAGTPADMVAIARDYAGWLSESPIPKLFINAEPGALTTGRMRDFCRTWPNQTEITVAGAHFIQEDSPDEIGAAIAAFVRRLRPA [V220M] | 61 °C | 10 °C
